From article PMC3568192 (Journal of molecular biology, 2012)
Blank lines part the entries; values can stand above or below the binder they belong to. Where no end group is shown, it is not given here.

Assays:
[1] = target: T1, FBF-2 (164-575) (C. elegans, UniProt Q09312 164-575); assay: fluorescence polarisation
T1 sequence (looked up): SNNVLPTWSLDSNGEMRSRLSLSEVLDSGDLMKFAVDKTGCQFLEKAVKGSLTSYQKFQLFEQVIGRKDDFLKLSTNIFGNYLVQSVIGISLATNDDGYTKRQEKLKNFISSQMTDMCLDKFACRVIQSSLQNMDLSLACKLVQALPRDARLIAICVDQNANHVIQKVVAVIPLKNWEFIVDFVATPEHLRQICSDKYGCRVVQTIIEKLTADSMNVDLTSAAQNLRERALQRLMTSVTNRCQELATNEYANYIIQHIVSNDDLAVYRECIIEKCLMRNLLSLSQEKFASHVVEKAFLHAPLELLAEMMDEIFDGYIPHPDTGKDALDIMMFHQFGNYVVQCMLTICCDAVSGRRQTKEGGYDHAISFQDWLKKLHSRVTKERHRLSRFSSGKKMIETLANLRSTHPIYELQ

[2] = target: T2, FBF-1 (164-566) (C. elegans, UniProt Q9N5M6 164-566); assay: cross-linking
T2 sequence (looked up): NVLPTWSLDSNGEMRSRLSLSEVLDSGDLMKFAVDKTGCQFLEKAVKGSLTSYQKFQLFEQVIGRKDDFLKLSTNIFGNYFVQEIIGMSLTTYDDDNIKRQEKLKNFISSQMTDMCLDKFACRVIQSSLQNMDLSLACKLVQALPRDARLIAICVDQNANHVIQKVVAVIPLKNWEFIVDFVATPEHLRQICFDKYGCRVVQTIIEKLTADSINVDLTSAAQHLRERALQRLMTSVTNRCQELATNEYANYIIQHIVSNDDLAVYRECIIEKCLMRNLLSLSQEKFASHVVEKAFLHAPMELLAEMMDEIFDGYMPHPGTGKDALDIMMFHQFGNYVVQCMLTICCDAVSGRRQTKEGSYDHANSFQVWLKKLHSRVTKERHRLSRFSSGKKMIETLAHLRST

[3] = target: T3, FBF-2 (164-566) (C. elegans, UniProt Q09312 164-566); assay: cross-linking
T3 sequence (looked up): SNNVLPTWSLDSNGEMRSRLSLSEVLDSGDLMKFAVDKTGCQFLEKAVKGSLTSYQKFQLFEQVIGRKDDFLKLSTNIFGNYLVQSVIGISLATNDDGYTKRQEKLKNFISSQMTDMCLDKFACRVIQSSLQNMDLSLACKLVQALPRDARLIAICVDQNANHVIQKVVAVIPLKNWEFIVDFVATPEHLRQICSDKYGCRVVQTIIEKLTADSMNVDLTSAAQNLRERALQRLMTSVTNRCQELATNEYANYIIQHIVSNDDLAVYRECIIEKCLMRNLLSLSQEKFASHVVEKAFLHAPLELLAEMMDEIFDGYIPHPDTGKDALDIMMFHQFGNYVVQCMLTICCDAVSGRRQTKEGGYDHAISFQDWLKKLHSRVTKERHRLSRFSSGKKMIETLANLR

[4] = target: T4, FBF-2 (164-575) (Caenorhabditis elegans, UniProt Q09312 164-575); assay: EMSA
T4 sequence: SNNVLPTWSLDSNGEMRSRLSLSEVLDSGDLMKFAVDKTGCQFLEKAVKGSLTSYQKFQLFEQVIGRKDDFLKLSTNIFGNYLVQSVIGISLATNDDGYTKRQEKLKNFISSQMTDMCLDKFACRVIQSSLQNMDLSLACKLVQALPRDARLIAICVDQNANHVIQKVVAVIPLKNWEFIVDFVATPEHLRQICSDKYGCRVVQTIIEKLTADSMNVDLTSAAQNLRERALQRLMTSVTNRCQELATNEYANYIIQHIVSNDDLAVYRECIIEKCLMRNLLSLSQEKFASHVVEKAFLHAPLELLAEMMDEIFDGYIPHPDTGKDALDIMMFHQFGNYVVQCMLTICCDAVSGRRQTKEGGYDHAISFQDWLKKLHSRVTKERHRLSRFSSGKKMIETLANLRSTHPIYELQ

[5] = target: T5, FBF-2 (164-575);MBP-CPB-1 (1-80) (Caenorhabditis elegans;Caenorhabditis …, UniProt Q09312;Q03571 164-575;1-80, |); assay: EMSA
T5 sequence 1: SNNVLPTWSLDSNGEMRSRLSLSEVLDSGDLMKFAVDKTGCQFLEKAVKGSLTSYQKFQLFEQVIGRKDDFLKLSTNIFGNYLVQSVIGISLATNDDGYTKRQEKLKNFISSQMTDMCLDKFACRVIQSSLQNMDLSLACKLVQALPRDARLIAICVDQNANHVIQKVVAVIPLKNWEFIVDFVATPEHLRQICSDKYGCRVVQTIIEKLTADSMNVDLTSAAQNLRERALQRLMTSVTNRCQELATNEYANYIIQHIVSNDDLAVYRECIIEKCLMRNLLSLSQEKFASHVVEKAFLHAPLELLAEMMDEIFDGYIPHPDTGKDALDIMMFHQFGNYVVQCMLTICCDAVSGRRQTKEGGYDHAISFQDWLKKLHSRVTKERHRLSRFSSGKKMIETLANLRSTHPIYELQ
T5 sequence 2: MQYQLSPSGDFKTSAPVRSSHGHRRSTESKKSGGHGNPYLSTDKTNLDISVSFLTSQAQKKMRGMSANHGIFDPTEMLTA

[6] = target: T2, FBF-1 (164-566); assay: pull-down
[7] = target: T3, FBF-2 (164-566); assay: pull-down
[8] = target: T1, FBF-2 (164-575); assay: NMR, [15N,1H]-HSQC free against bound
[9] = target: fluorescently labeled wild-type CPB-1(19-80) (C. elegans) (UniProt Q03571); assay: fluorescence polarisation

B1: CPB-1(19-80) (domain or fragment, C. elegans, UniProt Q03571 19-80, looked up)
chain: SSHGHRRSTESKKSGGHGNPYLSTDKTNLDISVSFLTSQAQKKMRGMSANHGIFDPTEMLTA
IC50 [1]: 1.15 ± 0.05 µM

B4: CPB-1(19-80) T45A (domain or fragment, C. elegans, UniProt Q03571 19-80, looked up)
chain: SSHGHRRSTESKKSGGHGNPYLSTDKANLDISVSFLTSQAQKKMRGMSANHGIFDPTEMLTA
binding result [1]: binds

B6: CPB-1(19-80) L40A (domain or fragment, C. elegans, UniProt Q03571 19-80, looked up)
chain: SSHGHRRSTESKKSGGHGNPYASTDKTNLDISVSFLTSQAQKKMRGMSANHGIFDPTEMLTA
binding result [1]: binds

Binder: CGAAAUAAACAUUUUGUACCAUUCAGUC (ssRNA) [cyb-1 RNA]
Kd [4]: 0.024 µM | Kd [5]: 0.0058 µM

Binder: SGGHGNPYLSTDKTNLDISVSFLTSQAQKKMRGMSANHGIFDPTEMLTA (domain or fragment, C. elegans, UniProt Q03571 32-80, looked up, also: 15N labeled) [15N-labeled CPB-1(32-80)]
binding result [8]: binds

B8: FBF-2 (164-575) (domain or fragment)
chain: SNNVLPTWSLDSNGEMRSRLSLSEVLDSGDLMKFAVDKTGCQFLEKAVKGSLTSYQKFQLFEQVIGRKDDFLKLSTNIFGNYLVQSVIGISLATNDDGYTKRQEKLKNFISSQMTDMCLDKFACRVIQSSLQNMDLSLACKLVQALPRDARLIAICVDQNANHVIQKVVAVIPLKNWEFIVDFVATPEHLRQICSDKYGCRVVQTIIEKLTADSMNVDLTSAAQNLRERALQRLMTSVTNRCQELATNEYANYIIQHIVSNDDLAVYRECIIEKCLMRNLLSLSQEKFASHVVEKAFLHAPLELLAEMMDEIFDGYIPHPDTGKDALDIMMFHQFGNYVVQCMLTICCDAVSGRRQTKEGGYDHAISFQDWLKKLHSRVTKERHRLSRFSSGKKMIETLANLRSTHPIYELQ
Kd [9]: 0.049 µM

B9: FBF-2 (164-575) T485A (domain or fragment)
chain: SNNVLPTWSLDSNGEMRSRLSLSEVLDSGDLMKFAVDKTGCQFLEKAVKGSLTSYQKFQLFEQVIGRKDDFLKLSTNIFGNYLVQSVIGISLATNDDGYTKRQEKLKNFISSQMTDMCLDKFACRVIQSSLQNMDLSLACKLVQALPRDARLIAICVDQNANHVIQKVVAVIPLKNWEFIVDFVATPEHLRQICSDKYGCRVVQTIIEKLTADSMNVDLTSAAQNLRERALQRLMTSVTNRCQELATNEYANYIIQHIVSNDDLAVYRECIIEKCLMRNLLSLSQEKFASHVVEKAFLHAPLELLAEMMDEIFDGYIPHPDAGKDALDIMMFHQFGNYVVQCMLTICCDAVSGRRQTKEGGYDHAISFQDWLKKLHSRVTKERHRLSRFSSGKKMIETLANLRSTHPIYELQ
Kd [9]: 1.26 µM

B11: FBF-2 (164-575) Y479A (domain or fragment)
chain: SNNVLPTWSLDSNGEMRSRLSLSEVLDSGDLMKFAVDKTGCQFLEKAVKGSLTSYQKFQLFEQVIGRKDDFLKLSTNIFGNYLVQSVIGISLATNDDGYTKRQEKLKNFISSQMTDMCLDKFACRVIQSSLQNMDLSLACKLVQALPRDARLIAICVDQNANHVIQKVVAVIPLKNWEFIVDFVATPEHLRQICSDKYGCRVVQTIIEKLTADSMNVDLTSAAQNLRERALQRLMTSVTNRCQELATNEYANYIIQHIVSNDDLAVYRECIIEKCLMRNLLSLSQEKFASHVVEKAFLHAPLELLAEMMDEIFDGAIPHPDTGKDALDIMMFHQFGNYVVQCMLTICCDAVSGRRQTKEGGYDHAISFQDWLKKLHSRVTKERHRLSRFSSGKKMIETLANLRSTHPIYELQ
fold increase in Kd relative to wild-type FBF [9]: > 60 fold

The next lines start with the values.

binding result [1]: binds
B2: CPB-1(19-80) K44A (domain or fragment, C. elegans, UniProt Q03571 19-80, looked up)
chain: SSHGHRRSTESKKSGGHGNPYLSTDATNLDISVSFLTSQAQKKMRGMSANHGIFDPTEMLTA

binding result [1]: binds
B3: CPB-1(19-80) I49A (domain or fragment, C. elegans, UniProt Q03571 19-80, looked up)
chain: SSHGHRRSTESKKSGGHGNPYLSTDKTNLDASVSFLTSQAQKKMRGMSANHGIFDPTEMLTA

binding result [1]: binds
B5: CPB-1(19-80) L47A (domain or fragment, C. elegans, UniProt Q03571 19-80, looked up)
chain: SSHGHRRSTESKKSGGHGNPYLSTDKTNADISVSFLTSQAQKKMRGMSANHGIFDPTEMLTA

stoichiometry N [2]: 1 | stoichiometry N [3]: 1
B7: CPB-1(1-80) (domain or fragment, C. elegans, UniProt Q03571 1-80, looked up)
chain: MQYQLSPSGDFKTSAPVRSSHGHRRSTESKKSGGHGNPYLSTDKTNLDISVSFLTSQAQKKMRGMSANHGIFDPTEMLTA

binding result [6]: binds | binding result [7]: binds
Binder: SGGHGNPYLSTDKTNLDISVSFLTSQAQK (domain or fragment, C. elegans, UniProt Q03571 32-60, looked up) [CPB-1(32-60)]

Kd [9]: 0.778 µM
B10: FBF-2 (164-575) I480A (domain or fragment)
chain: SNNVLPTWSLDSNGEMRSRLSLSEVLDSGDLMKFAVDKTGCQFLEKAVKGSLTSYQKFQLFEQVIGRKDDFLKLSTNIFGNYLVQSVIGISLATNDDGYTKRQEKLKNFISSQMTDMCLDKFACRVIQSSLQNMDLSLACKLVQALPRDARLIAICVDQNANHVIQKVVAVIPLKNWEFIVDFVATPEHLRQICSDKYGCRVVQTIIEKLTADSMNVDLTSAAQNLRERALQRLMTSVTNRCQELATNEYANYIIQHIVSNDDLAVYRECIIEKCLMRNLLSLSQEKFASHVVEKAFLHAPLELLAEMMDEIFDGYAPHPDTGKDALDIMMFHQFGNYVVQCMLTICCDAVSGRRQTKEGGYDHAISFQDWLKKLHSRVTKERHRLSRFSSGKKMIETLANLRSTHPIYELQ
